The values that follow come from paper PMC8501884.

Test [1] has as its target dimerization domain of ZEN-4 (residues 530 to 601) (C. elegans). Kind of test: crystal structure.
For test [2], the target named is NTD and CC region of CYK-4 (residues 1 to 120) (C. elegans). Kind of test: crystal structure.

Usually stoichiometry N stands for the number of molecules, sites or subunits per partner or assembly. The substance “dimerization domain of ZEN-4 (residues 530 to 601) (domain or fragment)” yielded a stoichiometry N in test [1] of 2. Substance “NTD and CC region of CYK-4 (residues 1 to 120) (domain or fragment)” had a stoichiometry N in test [2] of 2.
